± gives the half width of the 95% confidence interval.
Assays:
[1] = folding stability dG unfold from trypsin proteolysis; higher = more stable
Summary of the method: (§1)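 Designed mini-proteins (under 80 residues, no cysteine) in a PA-tagged cDNA display construct were digested with trypsin and chymotrypsin. Each protease was used at 11 concentrations (threefold dilutions) plus a no-protease condition, followed by sequencing. K50 was inferred by Bayesian fitting of sequencing counts, and unfolding free energy was derived against a sequence-predicted unfolded-state K50 and a shared folded-state K50, per protease or combined. Only designs with AlphaFold2 dimer inter-PAE above 15 were kept.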

[2] = folding stability dG unfold from chymotrypsin proteolysis; higher = more stable
Summary of the method: as §1

[3] = folding stability dG unfold (combined trypsin and chymotrypsin); higher = more stable
Summary of the method: as §1

| Sequence | folding stability dG unfold [1] | folding stability dG unfold [2] | folding stability dG unfold [3] |
| --- | --- | --- | --- |
| SAFKIDPNGHIRIMISQDDLKQMSIEEINNLVKELAKAFPPPMKVEIHIMPPPPKPKPPPKRDDDGKPKSAG [r14_312_TrROS] | 1.54 ± 0.053 kcal/mol | 0.66 ± 0.13 kcal/mol | 1.1 ± 0.18 kcal/mol |
| SAFKILPDGTILIDIGEDEAKKLSIEEIEALVKEIEKLLPKDYKVEIHIIPKKPIPKPPLIPGKDNLIGSAG [r14_312_TrMRF] | 1.94 ± 0.063 kcal/mol | 1.97 ± 0.041 kcal/mol | 1.91 ± 0.071 kcal/mol |
| SAFRDLAKEIARDAGYPVELVEIEFTNDTWTFMIQMKNDGEPYYFRIEIEWPNPNPGDWRIEIDDVQPPSAG [r14_387_TrROS] | 1.94 ± 0.14 kcal/mol | 3.09 ± 0.094 kcal/mol | 2.78 ± 0.28 kcal/mol |
| SAGAAPVGARLVKVEPLPGDGPFVLVEVTPPDGKPGFILVPWEFFESGYLKNATAADIAKRFPFAKPASAGG [r19_74_TrMRF] | 0.513 ± 0.019 kcal/mol | 1.85 ± 0.028 kcal/mol | 1.49 ± 0.056 kcal/mol |
| SAGAATINPNPLTLEIESPDGTKYTVSPEEVQKIKDELEAKGKPPTLEEILNEIKKRFPNWRVSYSPESAGG [r19_46_JUSTAS] | 3.06 ± 0.076 kcal/mol | 3.59 ± 0.04 kcal/mol | 3.44 ± 0.058 kcal/mol |
| SAGADSVTYDPETNLVVVYRRVGDDVEVLVLEPVPLPVVVVVPVEDAVTRNPELRPLLEQNPDFYLVFPSAG [r5_957_TrMRF] | 1.88 ± 0.036 kcal/mol | 2.248 ± 0.022 kcal/mol | 2.13 ± 0.051 kcal/mol |
| SAGAKIVSVEKVNGEKKITIKVKKEGDEIVIVFPKKNAKIEKKKNGTIEITIKEGETVIIVLKVKKKKSAGG [r19_227_TrROS_Hall] | 1.82 ± 0.051 kcal/mol | 3.29 ± 0.082 kcal/mol | 2.99 ± 0.22 kcal/mol |
| SAGALPPDQVVPIPVLVRLSEDDPELREAIERGEVVEFELPGPLRLLAEFEPLPEDLVLVTLYLEVPEGSAG [r5_223_TrMRF] | 1.28 ± 0.052 kcal/mol | 2.3 ± 0.062 kcal/mol | 1.98 ± 0.17 kcal/mol |
| SAGAMKITMPEDISVSPSGGATVTITVEFPDKDAVYTVPVTFPDVKSVEEVLARAEEVGKEFAEELKKKSAG [r5_940_JUSTAS] | 0.484 ± 0.046 kcal/mol | 0.872 ± 0.063 kcal/mol | 0.73 ± 0.099 kcal/mol |
| SAGAQPIKLKLVDPNGWEIDDIEIEYSPNGMYMIGIENPDNGRPMHIQYNPDDGKIEIRWPNGKLFEIESAG [r5_809_TrROS] | 0.713 ± 0.041 kcal/mol | 0.902 ± 0.13 kcal/mol | 0.841 ± 0.12 kcal/mol |
| SAGASVSRPVSADEEFSVTVPPEPVTLEVTVYRPDGSVLSSRTIPVGPNTTVTLNVPDPDWSVSFSPVASAG [r5_797_JUSTAS] | -0.0205 ± 0.2 kcal/mol | 0.082 ± 0.18 kcal/mol | 0.232 ± 0.2 kcal/mol |
| SAGATFKPGQTITVTVTVTVTVTNADGSTTTVTATVTVTLTVEPAPPLTFKTAEEAEAARKAGLSPEELSAG [r5_624_TrROS_Hall] | 1.35 ± 0.07 kcal/mol | 1.9 ± 0.076 kcal/mol | 1.84 ± 0.23 kcal/mol |
| SAGATLLEERELPDGSRVEVYREPDKLIVRVFSPDREVETRVFPLPPEPPLPVVPVVVDPARGRFVRLSAGG [r19_254_JUSTAS] | -0.621 ± 0.19 kcal/mol | -0.00636 ± 0.11 kcal/mol | -0.106 ± 0.077 kcal/mol |
| SAGDDWIPIEEIARRIARKHGYPVKSVEVPIYKTPDYYYVTVHIKYENPDDGKKQEFEDQFWIPKDEIKSAG [r5_421_TrROS] | 0.968 ± 0.065 kcal/mol | 0.97 ± 0.054 kcal/mol | 0.886 ± 0.17 kcal/mol |
| SAGDIGRVEARPVPLPGDRPGRVVVVESSVPNLRVLLFRGPEDRWVALVETDGRVEELPLEEALRLLASSAG [r5_157_TrMRF] | 1.69 ± 0.043 kcal/mol | 2.717 ± 0.021 kcal/mol | 2.39 ± 0.076 kcal/mol |
| SAGDLLKNLPPEIVEVEEVKTLPDGTKYFLVKVKKDGKERVFVIELDKNGKIVKIEEMSKEEAEKLLKKSAG [r5_73_TrROS_Hall] | 1.84 ± 0.088 kcal/mol | 3.74 ± 0.097 kcal/mol | 3.32 ± 0.17 kcal/mol |
| SAGDLSPSDTVDLEVTPVKVGDKWVHEVRVTVTLPDGSSLRSTLRLPPELGPPRRGRLSVPEFVALVAASAG [r5_831_JUSTAS] | 1.85 ± 0.024 kcal/mol | 2.39 ± 0.044 kcal/mol | 2.14 ± 0.11 kcal/mol |
| SAGDPDRPLGPVEITVDPEENTLTITFGDLTLTLPLPEGVEATAEVFPDHVVLTVRYPDGTIRTFVFPLSAG [r5_21_TrMRF] | 4.14 ± 0.13 kcal/mol | 5.09 ± 0.15 kcal/mol | 5.06 ± 0.16 kcal/mol |
| SAGDPRLRVLVVDLEVEGLEELREFVEEHPDVEVLPRPDGRVLLRRVLLVEVEEPEGEEDPDGPTLHPDSAG [r5_129_TrMRF] | 0.966 ± 0.11 kcal/mol | 1.44 ± 0.18 kcal/mol | 1.26 ± 0.13 kcal/mol |
| SAGDWELVELRPFRFPNGLEALVAVYRNPADERLVVLTVVREPEGRLVAVALVEFDGDKLVSESVFSPGSAG [r14_828_TrMRF] | 2.62 ± 0.079 kcal/mol | 3.755 ± 0.025 kcal/mol | 3.4 ± 0.12 kcal/mol |
| SAGDWVPIEFTIFFPDPNMTIEEIADSALMNLGLPPEDVTVKIKNIHEQPDPDGRPYYHIEVKIYIPDNSAG [r5_528_TrROS] | 1.7 ± 0.13 kcal/mol | 3.17 ± 0.13 kcal/mol | 2.75 ± 0.23 kcal/mol |

| Sequence | folding stability dG unfold [1] | folding stability dG unfold [2] | folding stability dG unfold [3] |
| --- | --- | --- | --- |
| SAGDWYVVIEIKHPNGRTITFVLRFDSPDELKDEILDNMRDEYGGPPEDMPITDIRVEVFDPKTGKPIWSAG [r5_482_TrROS] | 2.65 ± 0.18 kcal/mol | 3.36 ± 0.09 kcal/mol | 3.15 ± 0.14 kcal/mol |
| SAGEDGWHVVKIWIMIPGPAQLDEFLEEHPNVEIWPNPNGYFMVRITIRVPVPPPPPERDPDNGEPEPDSAG [r5_129_TrROS] | 3.73 ± 0.11 kcal/mol | 4.66 ± 0.064 kcal/mol | 4.29 ± 0.1 kcal/mol |
| SAGEEKVEELARELAEELGVTITEVTVTEEGDTVTITVVNEETGERITITVTRNEDGEITVTITVEKLPSAG [r5_888_TrROS_Hall] | 2.61 ± 0.28 kcal/mol | 2.53 ± 0.17 kcal/mol | 2.62 ± 0.11 kcal/mol |
| SAGEIEEILIENPETNEVYRITKVETTVELDEDGNLHTTTKVEIEKVEPPPPPEPEVEVEVKPGEKVELSAG [r5_212_TrROS_Hall] | 0.225 ± 0.068 kcal/mol | -0.00362 ± 0.42 kcal/mol | < -1 kcal/mol |
| SAGEIKIKVEEVDPEKPYVRVTIEIKLEPGQSIEEALKKLLKPGVEEAKIVKVEEENGYLKIEILVRRKSAG [r5_227_TrROS_Hall] | 3.22 ± 0.14 kcal/mol | 4.54 ± 0.28 kcal/mol | 4.01 ± 0.27 kcal/mol |
| SAGEIVIPIPFDWEQAPRMAKHLLRRFQQEGKKIRIWVPDAGAVEAIKDALPPNFPIEVEPLKPGEPIPSAG [r5_911_TrROS] | 0.299 ± 0.34 kcal/mol | 1.27 ± 0.27 kcal/mol | 0.909 ± 0.14 kcal/mol |
| SAGEKIKEKIKEILKELFPDAEVEIKTLPDGTIIIKLKKDKKIIVIKKTKDGKIKIVKVMTAEELKKLSSAG [r5_852_TrROS_Hall] | 2.15 ± 0.079 kcal/mol | 1.01 ± 0.26 kcal/mol | 1.51 ± 0.29 kcal/mol |
| SAGELEVTVTVRTETRTETREEEERRRREAAPPVRLRVFFPDTGLAVELEFDANGNIVSVKVTELPEDLSAG [r5_342_TrROS_Hall] | 1.87 ± 0.11 kcal/mol | 2.67 ± 0.051 kcal/mol | 2.39 ± 0.1 kcal/mol |
| SAGEMVVLRIRVKVPVTEVKFDKETGELTVEKKTVTREITLTVPADSPEARELAEKLRELGFEVEVVEASAG [r5_468_TrROS_Hall] | 3.35 ± 0.14 kcal/mol | 3.53 ± 0.042 kcal/mol | 3.43 ± 0.062 kcal/mol |
| SAGEPIRIKIMIMNPDGKLRPIVEIPIPPDDIKEIEIKDDSIEIELPGDGKTLMFRINNYPIMIQIEDSAGG [r19_408_TrROS] | 2.06 ± 0.029 kcal/mol | 3.2 ± 0.036 kcal/mol | 2.77 ± 0.11 kcal/mol |
| SAGEPLVPLSEYELDVPGGQKVKIEIYALPDGTVVVRITDSEGNESEITIPRAELEKLSPEEIVARLSSAGG [r19_47_JUSTAS] | 3.71 ± 0.14 kcal/mol | 3.57 ± 0.093 kcal/mol | 3.67 ± 0.098 kcal/mol |
| SAGEREELLERAKELARKLAEELGVEVEVTVTVEERDDSVTITVTVTVRNEDGSTHTFTFTFTLKKEDLSAG [r5_609_TrROS_Hall] | 3.83 ± 0.14 kcal/mol | 5.55 ± 0.2 kcal/mol | 5.43 ± 0.13 kcal/mol |
| SAGEVAPEEIRKIAEEIAKKLGLKNVKVEVSRDEETGEITVKIEVDIPESKKEKKEELEKAIKEKLGLKSAG [r5_9_JUSTAS] | 1.97 ± 0.084 kcal/mol | 2.96 ± 0.094 kcal/mol | 2.7 ± 0.17 kcal/mol |
| SAGFDWRTVKFPISPELRDKLKEDGFEIVGTSPNYITITVPVVPPPSPEELEEAEKEGMTWEEARDKASAGG [r19_115_TrROS] | -0.0911 ± 0.091 kcal/mol | -0.652 ± 0.82 kcal/mol | -0.0214 ± 0.26 kcal/mol |
| SAGFEFPPGQEIEFKVQYTSPMPNPDGGWGPVTETYEITIEIVPVPPIPFKDPAQAEELRQKGLPPDDLSAG [r5_624_TrROS] | 0.546 ± 0.06 kcal/mol | 1.44 ± 0.041 kcal/mol | 1.23 ± 0.14 kcal/mol |
| SAGFKIVDVEPTDGRLEITIPIDKPGDALMFMVPFPNAKITPDPNGKITITIPPGGWYMIMIRLKKDASAGG [r19_227_TrROS] | 2.33 ± 0.037 kcal/mol | 2.67 ± 0.091 kcal/mol | 2.6 ± 0.14 kcal/mol |
| SAGFVPGKLKAVDPNGNEIDVIEIEELPNGKVIAKGKNKTNGFPYIATYDPVSGKVYIILPNGKVIEIGSAG [r5_809_TrMRF] | 0.867 ± 0.074 kcal/mol | 1.82 ± 0.12 kcal/mol | 1.55 ± 0.13 kcal/mol |
| SAGGAEEKIREIAEKLGVKEVLSADEAEKLPPEYPKRIAVVPRPDGSVLVIVRLENGEVLVIEFPVDSAGGS [r16_686_TrMRF] | 1.45 ± 0.044 kcal/mol | 2.49 ± 0.035 kcal/mol | 2.15 ± 0.086 kcal/mol |
| SAGGAFAVVDAGDKVITITVYNPDGELVAPAEIPVLDPETGESDALNIPLEELEKLAGVPIELEPAGSAGGS [r16_778_TrMRF] | 0.977 ± 0.059 kcal/mol | 1 ± 0.025 kcal/mol | 1.03 ± 0.1 kcal/mol |
| SAGGAHEMEWKHEYELPPYRLKVELEWYYDPDGNPQPSIETIEIRPVPPPTIDAEDLPPEQAKENGIASAGG [r13_964_TrROS] | 1.13 ± 0.11 kcal/mol | 1.23 ± 0.087 kcal/mol | 1.08 ± 0.38 kcal/mol |
| SAGGAIELPDLGEEEAIETLKKLAEEGIKNPVGVIRTPTKPLVITYDPETNTVTITLPDGTILTLVVSAGGS [r16_481_JUSTAS] | 0.755 ± 0.091 kcal/mol | 1.83 ± 0.028 kcal/mol | 1.52 ± 0.11 kcal/mol |

— the supplement of paper PMC12764529
